From patent US20220119534A1 (DRAGONFLY THERAPEUTICS, published 2022)
“And” between values parts separate entries of the source, which are not always exact repeats. Identical values can stand only once.

How the values were obtained:
[1] = molecular target: T1, Human CLEC12A-His (recombinant, K244 WT) (human, UniProt Q5QGZ9 65-265); assay: SPR, two-state fit; after 4 wks 40C in HST pH 6.0
T1 construct: Made in house (Dragonfly Tx); also called hCLEC12A; hCLEC12A-His; not shown: His tag
T1 sequence: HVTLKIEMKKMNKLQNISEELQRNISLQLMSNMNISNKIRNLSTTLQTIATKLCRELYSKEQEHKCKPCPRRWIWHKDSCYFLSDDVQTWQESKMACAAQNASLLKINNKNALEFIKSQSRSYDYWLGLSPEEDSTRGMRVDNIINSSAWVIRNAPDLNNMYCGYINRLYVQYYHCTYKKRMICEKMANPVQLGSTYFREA

[2] = molecular target: T1, Human CLEC12A-His (recombinant, K244 WT); assay: SPR, two-state fit (ka1); after 4 wks 40C in CST pH 7.0
Protocol: (§1) Briefly, human Fc specific antibodies were covalently immobilized at a density ˜8000-10000 resonance units (RU) on carboxy methyl dextran matrix of a CM5 biosensor chip via amine-coupling chemistry to create an anti-hFc IgG chip. […] Association was monitored for 300 seconds and dissociation was monitored for 600 seconds. Surfaces were regenerated between cycles with three pulses of 10 mM glycine-HCl, pH 1.7 injected for 20 seconds at 100 μl/min. HBS-EP+ (1×) with 0.1 mg/ml BSA was used as running buffer throughout the experiment. Experiments were performed at physiological temperature of 37° C. To obtain kinetic rate constants and overall binding affinity, double-referenced data were fit to a two-state kinetic model using Biacore 8K Insight Evaluation software (Cytiva).

[3] = molecular target: T2, Human CLEC12A expressed on cells (Ba/F3-hCLEC12A, PL21, HL60) (human, UniProt Q5QGZ9 1-265); assay: cell-based or functional assay
T2 sequence: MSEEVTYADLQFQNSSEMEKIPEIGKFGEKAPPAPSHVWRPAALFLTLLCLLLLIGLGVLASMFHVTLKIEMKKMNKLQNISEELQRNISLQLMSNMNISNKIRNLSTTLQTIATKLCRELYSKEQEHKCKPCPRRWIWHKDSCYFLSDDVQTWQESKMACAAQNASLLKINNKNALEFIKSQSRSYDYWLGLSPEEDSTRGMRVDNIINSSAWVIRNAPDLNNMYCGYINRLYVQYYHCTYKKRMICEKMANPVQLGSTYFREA

[4] = molecular target: T2, Human CLEC12A expressed on cells …; assay: cell-based or functional assay; remark: listed apart in the source
[5] = molecular target: T1, Human CLEC12A-His (recombinant, K244 WT); assay: SPR, two-state fit; control sample
Protocol: as §1

[6] = molecular target: T3, Cynomolgus CD16 (FcγRIII) (cynomolgus monkey, UniProt Q8SPW2 17-208, biotinylated); assay: SPR 25C, biotinylated cyno CD16 captured
T3 construct: Bought recombinant receptor; also called cFcγRIII; Cyno FcγRIII
T3 sequence (Q8SPW2 17-208 limits assumed): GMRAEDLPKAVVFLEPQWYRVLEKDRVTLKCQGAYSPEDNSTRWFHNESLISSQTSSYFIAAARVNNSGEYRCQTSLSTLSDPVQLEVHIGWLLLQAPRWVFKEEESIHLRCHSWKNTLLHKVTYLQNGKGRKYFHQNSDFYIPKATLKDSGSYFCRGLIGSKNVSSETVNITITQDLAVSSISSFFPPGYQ

[7] = molecular target: T4, Human CD32a R131 (FcγRIIa R131) (human, UniProt P12318 36-218, limits assumed, biotinylated); assay: SPR, summary of FcγR affinities
T4 construct: Bought recombinant receptor; also called hFcγRIIa R131; FcgRIIa R131
T4 sequence (looked up): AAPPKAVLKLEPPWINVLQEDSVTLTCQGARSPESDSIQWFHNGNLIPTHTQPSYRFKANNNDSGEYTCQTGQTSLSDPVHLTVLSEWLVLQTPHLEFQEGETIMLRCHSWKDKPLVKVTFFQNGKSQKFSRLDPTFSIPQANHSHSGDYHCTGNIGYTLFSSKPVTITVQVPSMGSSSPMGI
Protocol: (§2) Human and cynomolgus CD64, high and low affinity alleles of CD16a (V158 and F158, respectively), two alleles of CD32a (H131 and R131), CD16b, CD32b and cynomolgus CD16 were captured via biotin on a primed (according to the manufacturers instruction) Biacore chip. […] Due to irreversibility of streptavidin-biotin interaction, the capture step for all receptors except FcγRI (CD64) was performed just once prior to the start of the binding experiment. hCD64 and cyno CD64 capture on the CAP chip surface was performed during each cycle in accordance with the manufacturer's instructions for the Biotin CAPture kit.
(§3) Detailed description of each individual receptor binding is presented below.

[8] = molecular target: T5, Human CD16a V158 (FcγRIIIa V158) (human, UniProt P08637 17-208, biotinylated); assay: SPR, summary of FcγR affinities
T5 construct: Bought recombinant receptor; also called hCD16aV; hFcγRIIIa V158
T5 sequence (P08637 17-208 F176V limits assumed): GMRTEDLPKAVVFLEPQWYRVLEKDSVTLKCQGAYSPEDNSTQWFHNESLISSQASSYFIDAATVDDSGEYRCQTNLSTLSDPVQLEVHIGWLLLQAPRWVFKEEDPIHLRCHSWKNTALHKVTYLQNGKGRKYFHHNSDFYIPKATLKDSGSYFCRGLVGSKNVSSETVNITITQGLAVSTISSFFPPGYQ
Protocol: as §2, §3

B1: AB0089 TriNKET (bispecific antibody, human IgG1, kappa)
chain: QLQLQESGPGLVKPSETLSLTCTVSGFSLTNYGLHWIRQPPGKCLEWIGVIWVGGATDYNPSLKSRVTISVDTSKNQFSLKLSSVQAADTAVYYCAKGDYGDTLDYWGQGTLVTVSSGGGGSGGGGSGGGGSGGGGSDIQMTQSPSSLSASVGDRVTITCHASQNINFWLSWYQQKPGKAPKLLIYEASNLHTGVPSRFSGSGSGTDFTLTISSLQPEDFATYYCQQSHSYPLTFGCGTKLEIKGSDKTHTCPPCPAPELLGGPSVFLFPPKPKDTLMISRTPEVTCVVVDVSHEDPEVKFNWYVDGVEVHNAKTKPREEQYNSTYRVVSVLTVLHQDWLNGKEYKCKVSNKALPAPIEKTISKAKGQPREPRVYTLPPCRDELTKNQVSLTCLVKGFYPSDIAVEWESNGQPENNYKTTPPVLVSDGSFTLYSKLTVDKSRWQQGNVFSCSVMHEALHNHYTQKSLSLSPG
heavy: EVQLVESGGGLVKPGGSLRLSCAASGFTFSSYSMNWVRQAPGKGLEWVSSISSSSSYIYYADSVKGRFTISRDNAKNSLYLQMNSLRAEDTAVYYCARGAPIGAAAGWFDPWGQGTLVTVSSASTKGPSVFPLAPSSKSTSGGTAALGCLVKDYFPEPVTVSWNSGALTSGVHTFPAVLQSSGLYSLSSVVTVPSSSLGTQTYICNVNHKPSNTKVDKKVEPKSCDKTHTCPPCPAPELLGGPSVFLFPPKPKDTLMISRTPEVTCVVVDVSHEDPEVKFNWYVDGVEVHNAKTKPREEQYNSTYRVVSVLTVLHQDWLNGKEYKCKVSNKALPAPIEKTISKAKGQPREPQVCTLPPSRDELTENQVSLTCLVKGFYPSDIAVEWESNGQPENNYKTTPPVLDSDGSFFLYSWLTVDKSRWQQGNVFSCSVMHEALHNHYTQKSLSLSPG
light: DIQMTQSPSSVSASVGDRVTITCRASQGISSWLAWYQQKPGKAPKLLIYAASSLQSGVPSRFSGSGSGTDFTLTISSLQPEDFATYYCQQGVSFPRTFGGGTKVEIKRTVAAPSVFIFPPSDEQLKSGTASVVCLLNNFYPREAKVQWKVDNALQSGNSQESVTEQDSKDSTYSLSSTLTLSKADYEKHKVYACEVTHQGLSSPVTKSFNRGEC
notes: F3' format heterodimer of three chains; human IgG1 Fc with EW-RVT and Y349C/S354C mutations; also called AB0089 Lot AB0089-002; CLEC12A TriNKET AB0089
- Kd [1]: 1 nM
- kon [2]: 6.31e+06 M⁻¹ s⁻¹
- EC50, KHYG-1-CD16aV cytotoxicity assay, HL-60 cells; after low pH hold [3]: 0.11 nM
- EC50, KHYG-1-CD16aV cytotoxicity assay, HL-60 cells; control sample [3]: 0.11 nM
- % Max, ADCP activity of M0 macrophages against PL21 cells [4]: 15%
- EC50, ADCP activity of M0 macrophages against PL21 cells [4]: 0.03 nM
- Kd [5]: 0.7 nM
- Kd [6]: 351 nM and 347 nM and 348 nM
- Kd [7]: 1250 nM
- Kd [8]: 333 nM
